# Assay: soluble on expression in E. coli; label from the status in PepcDB or PDB records
row,Sequence,soluble on expression in E. coli
1,MSLGRIGLRKLLQRIGIVAESMTPLATDPVEVTQLLDARWYDERLRALADELGRDPDSVRAEAAGYLREMAASLDERAVQAWRGFSRWLMRAYDVLVDEDQITQLRKLDRKATLAFAFSHRSYLDGMLLPEAILANRLSPALTFGGANLNFFPMGAWAKRTGAIFIRRQTKDIPVYRFVLRAYAAQLVQNHVNLTWSIEGGRTRTGKLRPPVFGILRYITDAVDEIDGPEVYLVPTSIVYDQLHEVEAMTTEAYGAVKRPEDLRFLVRLARQQGERLGRAYLDFGEPLPLRKRLQEMRADKSGTGSEIERIALDVEHRINRATPVTPTAVVSLALLGADRSLSISEVLATVRPLASYIAARNWAVAGAADLTNRSTIRWTLHQMVASGVVSVYDAGTEAVWGIGEDQHLVAAFYRNTAIHILVDRAVAELALLAAAETTTNGSVSPATVRDEALSLRDLLKFEFLFSGRAQFEKDLANEVLLIGSVVDTSKPAAAADVWRLLESADVLLAHLVLRPFLDAYHIVADRLAAHEDDSFDEEGFLAECLQVGKQWELQRNIASAESRSMELFKTALRLARHRELVDGADATDIAKRRQQFADEIATATRRVNTIAELARRQEGHHHHHH,soluble
2,MPEVSVEKPLSVIPPEFCANANCPFSPKEISVLRIKVRGGVSKEEILQVNSASRPALPRQHSASTVSPLQSSSDELNNDSGIDNRTVGSPSTSEFSPRSTDLFVSPKSIIDEEPPHHPPPPPPVEEKLDQVLIPLKLSRGQDYAPIYRSLEQDTYYDQSPSESEKDEDLGLTNTKRYTENFRSVEKNQYMPVMSARVEATFKQPPPREGVKPFVSRAAQDITHNGESKVENIDLTIELNREQKATVTATKYPRTDFIMEDYHRPQTQILAPAPKKPNSTTRIYHAVDIPFDESPASYYPKQNNGYQRQRRYSASSASKQDGMFTLNVIMGSQPVHKGMGFSTVKRDERVIVESVIVGSPADKAGLLVGDTILSINGEEMSDKYQSGVTRILHEAARVGEADVLILRAPVPAPMLSKQMSTSSSNSSNYDKARSVFTENKSFDSYAEFKRKHTRTSRDSNSSNATRSSRDFNSLPRGTTAQSSLDRKRDTSLSSYRTAKDNFNSSSNRSSGRSEYGDYRVSNYQEKNAPGRLTDFVPEVDRRLSRREQSEEIYSRSQRDEEPRTIRNYHLSNENIARTNLNYDGRRDSEEESTTTTLKRTTLPRSGTAQWKNEYSDGEEVTEKLPVTSRDSSPLRSALKKSSHNYYHQSSDPVAPPPRRYYSTESLQLPKTSSYQRYSEEEDEEIEETYSSMRRHRQEIPRHVDEFHTVGSYGVMPQRSRSQQPARLPRYDSVPDDVDEVSGVSHRFYDRSGNHVRAPRERIHDIQIQRDYGDRAPSRDLDFVRNTYKWEEQLEDTKVTTTTKIYEKESRDWRDVINQQRQAAPGNSADRRGIAATSSSLSNLPSYINRRMEKEREREIEYRRDREYSMPPADPPVITEKYERDEYSRVEERTYPVPVARNKMRREETQMQSSLQQMHSQSSQKDDSVVAVSGKHRCAHCNEELGRGAAMIVESLNLFYHLACFKCYVCKTSLGSGATGADVRVRDGRLHCQTCYSNDRVQLSKV,not soluble
3,MGSDKIHHHHHHLIPFFLDLVSRTDEARRAFELHPVVTHAAANGMTLQRYRRLLLELYHVVWHFNTVSAAGASRLQDTHKQVRYFLYEHMHEESGHEEWVLADLEQMGVTRDIALNHRPSHYTLALVGYYYYAADRKHPASVLGMLYALEVIASVYGGTLTSAVKESLLLDDERGVSFISSHATLDAEHMADLKTVLDTIEDDEAKDAIEEAVLLTFNHLTHIMVEAHLEEGDISGAPAVNAEHFAISAEKAAA,not soluble
4,MTQVYDGFVHLGFSNRNGRTISHKKYQEGNSRVSADNSDANGVPYYFLINMGGGFVEGEQYQVTIDVNKDAHALVTTQTPTYVYKCEKGQLTQQNTSITLEENSYLEYMADEVIPYLKSRYFQTSRIDMDKSAHLIYSDGVTAGWSHEDLPFQYHYFRNLTQIYQDNELVYSDQTLLEPEKQDMFKLGYFEGWRNYNSLVMVSPNIDEAFVKALQKHLEGLNLESDFAISSLDISGLVLRILGKTAEDNRRIIYSCADYFRQEIHGLTPLNLRKNDMRRLEHHHHHH,soluble
5,MTDFDIDTSAANYADELALLGVTGAMSYAPKGTQMPETIAPLNPPFVDFGWLSDGGITESQNEERNDWTPFQSTNPIRGQVTKQDFQFKTVVWSISGLANAMYYGVPESDMRFDQETGVTTFEQGKELPPDFKFGLVVDIVDGGKARRHCMPNVSVVERGDIVYSKDDLVGYEMTFRASYDPVAGYAVRRMFKEGWKPGHAGTTLADENKDASLGDWSNTLDESEVRKQSKTVTLPKGATGGTFTVSINGKASAAINHDATGTAMKLVLNKVDGGESAKVTGRAGGPYTITGVEGEITADGTNLTGSDTQDISIN,not soluble
6,MSLSHVLQELRDVRQASHKVSQGARVLFPCELLSALSLLQTSAQASYQAVVETGLGLARGLREQILKAAAILGVADPSGIYIQPEDEHRLDVVGRLFEAMLRDSCLYPQSRVWIGHLLVPVAKVALRDSCLLETDHHPVWRLLMLLVDACNGNKGEDPAEHALLMQVRETVETVVREFDDDVTLFQTQQAALSMHYEQYVAKTRNTQRHVAECEITEERRQQAQRVADDALKQCLLGHVLPQQIEHFLRRIWCAHVQQVALLNDDNGQALKAVLALGDALLVQWRQASEGSIPERPWLYEERAGILEAFCIAGMTLVEAEAGFANLQHVLAAATPQSSVIATSTQTQSFDTFISVPDTSATSELNTASPSYFRELPLGTWLDFIGIDGRIQSGQLSWVSPISGRLMFVNHRGRRLCVTAPEELSTLMCLGRLRLHRAGDSLMSEGHHHHHH,not soluble
7,MPYIILEDQTRLYYETHGSGTPILFIHGVLMSGQFFHKQFSVLSANYQCIRLDLRGHGESDKVLHGHTISQYARDIREFLNAMELDHVVLAGWSMGAFVVWDYLNQFGNDNIQAAVIIDQSASDYQWEGWEHGPFDFDGLKTAMHAIQTDPLPFYESFIQNMFAEPPAETETEWMLAEILKQPAAISSTILFNQTAADYRGTLQNINVPALLCFGEDKKFFSTAAGEHLRSNIPNATLVTFPKSSHCPFLEEPDAFNSTLLSFLDGVIGKS,not soluble
8,MLIWSPSVRIAANIRTDNPNSLKRNANMPQLTLDKTDIKILQVLQENGRLTNVELSERVALSPSPCLRRLKQLEDAGIVRQYAALLSPESVNLGLQAFIRVSIRKAKDAREDFAASVRKWPEVLSCFALTGETDYLLQAFFTDMNAFSHFVLDTLLSHHGVQDAQSSFVLKEIKHTTSLPLNHLLKE,not soluble
9,SRAMPASLSTAALRSDNVSPVDPLGVQREFDHYVSVLRDRLGLQVVMLPADEELPDCVFVEDTAVVCGSTALITRPGAPSRRSETVAMKGALTELGLNIVEMNDESATMDGGDVLFTGKEFFVGLSKRTNQRGAEILANTFKDYAVSTIPVEEGLHLKSFCSMAGPNLIAIGSSDAAQKALKVIQQMSDCKYEKLTVPDDRAANCVYMNLPGKGDVLLHCTPEVFPESAKVFERLKSHMLIPVSNQEKMKVDGALTCLSVLLRI,soluble
10,MSLEAPVYKEIFGAVKIYELQKVIKMDTETEDVPMFTVQNLPREDIYKTIGEMAIIVPMKNEKLHLVDGVLKAIPHKSPIIIVSNSKRKGPNRFKQEVDLVKHFCNLTHSKVIMIHQRDPGLAEAFRETGYEDILDEKGLVRSGKGEGMLIGIMLAKAIGAKYVGFVDADNYIPGAVNEYVKDYAAGFLMSESEYAMVRLHWRHKPKVSRGTLYFKKWGRVSEITNRYLNQLISEKTAFETTIMVTGNAGEHAMTMKLAEILPFSTGYSIEPYEIVYLLERFGSWENVEEFQDVFDQGIEIFQIETLNPHFHEDKGQEHVKEMVLLSLTTIYHSKLASERLKRQILEDLRMHGIIKEDEEPPKPRVMRPIKDIDIKKWMKTLESNQETLLRFDLEGHHHHHH,soluble
11,MGSDKIHHHHHHMDLDRIKGEIVAFVEGRKSEFAAIAEDLYLHPETGLNEVRSSALLADFLEREGFRVERGIAGLPTAFRAETGEGGPVIAFMAEMDALPVMGHACGHNVIAAAAVGAATALRSILPPDAARIVVLGTPAEEMGIGKVDMIANGAFDGVEFALMVHPSSRRYVIKHYLGLARVRFTFFGKPAHAAAYPEEGINALDGVIQTFNGISALRQQLRQDVRVHGIITEGGVAPNIIPERASAHFYVRADDLAELERAKARVLACAEGAALATGCRLQVDADPRIMAPLKVNRIFSDLYSAQLAYLDLQESENQPDKNKGSSDIGNVSQIVPTIHPHVPIGDGINIHSEAFARATVSGKGKAAVAEGATALALTAAELAARPDIREEIWREFRS,not soluble

# — the DeepSol protein solubility set
